Test results as given in publication PMC3384324 (Nucleic Acids Research, 2012).

Target: the molecule itself
Assay: cross-linking

B1: His6-PfORC1N_(1–238) (domain or fragment, Plasmodium falciparum 3D7, UniProt Q8I615 1-238, looked up)
chain: MTPKKKIFQNFQANDNEILSPTKKGIKLNVSKLNILNFENTIITKEKTNYEYKASLNKEIDEVLNNNNIINTHNNKKNNLNLYDYNNIKNSTHEFYIDLNEQNKQTIKYNDNKFTPINKKEKYNLDETSSSSISSSLTNISSSLTNISSSLTNISSSLSNSLDEKKKKKKIKKNNSTIINILNNNNNNSNIHHNNKHNIYNKYNISKKPQNKEIHTLPSNHQIKKKSNNTYNTCQQKM
**Q.** For B1, which “stoichiometry N” value is on record?
**A.** The value was 2.
